Experimental data from paper PMC2954336, “Biophysical characterization of recombinant proteins: A key to higher structural genomics success” (Journal of Structural Biology, 2010).
Ends that are not written are not given here. fluorescein = fluorescein label on the N-terminus of the peptide (end-label); Me2 = dimethyl on Lys

Target: WDR5 (WD repeat domain 5) (UniProt P61964 1-334)
Assay: fluorescence polarisation; 36 nM fluorescein-labeled peptide titrated with WDR5 from 30 nM to 30 uM; 100 mM potassium phosphate buffer pH 8, 0.01% Triton X-100; data fitted to a hyperbolic equation
Conditions: both partners purified

- Kd: 100 ± 9 nM
Binder: fluorescein-ARTK(Me2)QTARKST [11-mer fluorescein-labeled histone H3 peptide dimethylated on lysine 4 (F-H3K4Me2)]
